Data reported in paper PMC6053526, “Arabidopsis WRKY50 and TGA Transcription Factors Synergistically Activate Expression of PR1”.

Legend:
[1] = molecular target: T1, GST-AtWRKY50-C (Arabidopsis thaliana, UniProt Q8VWQ5 86-173); experiment: EMSA; 5x buffer (3 uL in 14 uL): 20% glycerol, 5 mM MgCl2, 2.5 mM EDTA, 2.5 mM DTT, 250 mM NaCl, 50 mM Tris-HCl pH 7.5, 0.25 mg/ml poly(dI-dC); 0.5 ug protein; 10 min RT, then 60 min on ice with probe; gel at 4 C; details: protein: recombinant, tags: GST (N-term), label: 32P
[2] = molecular target: T2, TGA2-His (Arabidopsis thaliana, UniProt P43273 1-330); experiment: as above; details: protein: recombinant; tags: His; chain copies: 2; label: 32P; blunt
T2 sequence: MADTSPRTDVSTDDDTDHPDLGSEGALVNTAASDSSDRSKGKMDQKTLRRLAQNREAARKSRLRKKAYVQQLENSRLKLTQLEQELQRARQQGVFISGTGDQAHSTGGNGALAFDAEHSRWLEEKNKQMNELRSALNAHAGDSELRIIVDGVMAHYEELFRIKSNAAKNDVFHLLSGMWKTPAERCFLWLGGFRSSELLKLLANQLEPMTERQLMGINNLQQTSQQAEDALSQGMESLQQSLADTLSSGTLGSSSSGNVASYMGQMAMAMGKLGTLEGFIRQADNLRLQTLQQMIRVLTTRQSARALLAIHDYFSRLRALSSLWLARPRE

[3] = molecular target: T1, GST-AtWRKY50-C; experiment: EMSA; enhanced vs fragment A; 5x buffer (3 uL in 14 uL): 20% glycerol, 5 mM MgCl2, 2.5 mM EDTA, 2.5 mM DTT, 250 mM NaCl, 50 mM Tris-HCl pH 7.5, 0.25 mg/ml poly(dI-dC); 0.5 ug protein; 10 min RT, then 60 min on ice with probe; gel at 4 C; details: protein: recombinant; tags: GST (N-term); label: 32P; 5' overhang 3 nt (GGG) both ends
[4] = molecular target: T2, TGA2-His; experiment: EMSA; shift increased by full-length AtWRKY50; 5x buffer (3 uL in 14 uL): 20% glycerol, 5 mM MgCl2, 2.5 mM EDTA, 2.5 mM DTT, 250 mM NaCl, 50 mM Tris-HCl pH 7.5, 0.25 mg/ml poly(dI-dC); 0.5 ug protein; 10 min RT, then 60 min on ice with probe; gel at 4 C; details: protein: recombinant; tags: His; chain copies: 2; label: 32P; blunt
[5] = molecular target: T1, GST-AtWRKY50-C; experiment: EMSA; as wild type D; 5x buffer (3 uL in 14 uL): 20% glycerol, 5 mM MgCl2, 2.5 mM EDTA, 2.5 mM DTT, 250 mM NaCl, 50 mM Tris-HCl pH 7.5, 0.25 mg/ml poly(dI-dC); 0.5 ug protein; 10 min RT, then 60 min on ice with probe; gel at 4 C; details: protein: recombinant; tags: GST (N-term); label: 32P; 5' overhang 3 nt (GGG) both ends

T1 sequence (Q8VWQ5 86-173): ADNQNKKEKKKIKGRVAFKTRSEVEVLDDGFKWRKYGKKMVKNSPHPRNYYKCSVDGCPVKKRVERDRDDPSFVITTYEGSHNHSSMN

B1: fragment A (dsDNA)
DNA 1: GGTGATCTATTGACTGTTTCTCTACGTCACTA
DNA 2: TAGTGACGTAGAGAAACAGTCAATAGATCACC
- binding result ([1]; blunt): binds
- binding result [2]: no binding

B2: Am2 (dsDNA)
DNA 1: GGGGGTGATCTATTGACTGCCTCTCTACGTCACTA
DNA 2: GGGTAGTGACGTAGAGAGGCAGTCAATAGATCACC
- binding result ([1]; 5' overhang 3 nt (GGG) both ends): no binding

B3: Am1 (dsDNA)
DNA 1: GGGGGTGATCTATTGACTTTTCTCTACGTCACTAT
DNA 2: GGGATAGTGACGTAGAGAAAAGTCAATAGATCACC
- binding result [3]: binds

B4: fragment B (dsDNA)
DNA 1: TTTCTCTACGTCACTATTTTACTTACGTCATA
DNA 2: TATGACGTAAGTAAAATAGTGACGTAGAGAAA
- binding result [4]: binds

B5: Dm2 (dsDNA)
DNA 1: GGGGATGTGGCGGCATATATTCCCCAGGACTTTTC
DNA 2: GGGGAAAAGTCCTGGGGAATATATGCCGCCACATC
- binding result [5]: binds

B6: fragment C (dsDNA)
DNA 1: TTTTACTTACGTCATAGATGTGGCGGCATATA
DNA 2: TATATGCCGCCACATCTATGACGTAAGTAAAA
- binding result [4]: binds

B7: fragment D (dsDNA)
DNA 1: GATGTGGCGGCATATATTCTTCAGGACTTTTC
DNA 2: GAAAAGTCCTGAAGAATATATGCCGCCACATC
- binding result ([1]; blunt): binds
